One assay deals with FLAG-Pol λ-WT (human) (UniProt Q9UGP5).
A further assay deals with FLAG-PAXX (human) (UniProt Q9BUH6). Description: affinity purification with mass spectrometry; anti-FLAG IP of FLAG-PAXX, -XLF, -XRCC4, -DNA-PKcs (stable) or FLAG-Pol λ (transient) from nucleoplasmic and benzonase-treated soluble chromatin fractions of HEK293F cells; FLAG peptide elution; LC-MS/MS.

Sequence of FLAG-Pol λ-WT (human) (Q9UGP5 whole entry): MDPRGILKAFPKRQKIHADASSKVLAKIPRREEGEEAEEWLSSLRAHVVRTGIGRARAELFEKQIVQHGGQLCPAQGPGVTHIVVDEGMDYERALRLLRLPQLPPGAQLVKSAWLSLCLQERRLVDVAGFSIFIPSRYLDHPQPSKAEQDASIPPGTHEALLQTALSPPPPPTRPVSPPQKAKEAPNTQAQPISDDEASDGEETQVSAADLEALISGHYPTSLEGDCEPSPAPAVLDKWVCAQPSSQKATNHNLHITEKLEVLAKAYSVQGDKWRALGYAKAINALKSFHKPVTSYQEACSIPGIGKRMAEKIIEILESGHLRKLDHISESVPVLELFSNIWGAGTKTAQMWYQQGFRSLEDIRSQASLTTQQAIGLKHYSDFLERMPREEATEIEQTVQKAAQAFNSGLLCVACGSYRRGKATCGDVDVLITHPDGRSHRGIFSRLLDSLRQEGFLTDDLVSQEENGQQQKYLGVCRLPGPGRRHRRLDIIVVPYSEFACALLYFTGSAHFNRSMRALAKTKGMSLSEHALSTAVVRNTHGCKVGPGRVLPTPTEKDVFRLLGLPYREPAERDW

In the assay with FLAG-Pol λ-WT (human), “FLAG-PAXX (from UniProt Q9BUH6 1-204) (natural protein)” showed a Pol λ-dependent gap filling synthesis on a 5nt-gapped dsDNA (33-mer), stimulation by added protein over a concentration series of under 10 fold.

The term stoichiometry N denotes the number of molecules, sites or subunits per partner or assembly. In the assay with FLAG-PAXX (human), “DNA-PK holoenzyme (endogenous) (from UniProt P78527 1-4128; P12956 1-609; P13010 1-732) (complex)” showed a stoichiometry N of 1 to 1.5.

Values taken from article PMC6155126.
